Earlier results, collected in paper PMC8569824.
pKi: −log10 of the molar value.

Biological target: Amyloid beta (1-40) Aβ 1-40 (Homo sapiens) (UniProt P05067)
Assay: seed-dependent aggregation inhibition

Chain of UniProt P05067 (P05067 1-40): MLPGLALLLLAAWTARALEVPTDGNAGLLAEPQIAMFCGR

pKi: 6.12
Substance: L-PGDS (from UniProt P41222)
